{
  "source": "paper PMC5811534",
  "about": "“Neuropathic MORC2 mutations perturb GHKL ATPase dimerization dynamics and epigenetic silencing by multiple structural mechanisms” (Nature Communications, 2018)",
  "proteins": {"B1": {"name": "MORC2(1–603) S87L (domain or fragment, human, UniProt Q9Y6X9-1 1-603, looked up)", "chain": "MAFTNYSSLNRAQLTFEYLHTNSTTHEFLFGALAELVDNARDADATRIDIYAERREDLRGGFMLCFLDDGAGMDPSDAASVIQFGKLAKRTPESTQIGQYGNGLKSGSMRIGKDFILFTKKEDTMTCLFLSRTFHEEEGIDEVIVPLPTWNARTREPVTDNVEKFAIETELIYKYSPFRTEEEVMTQFMKIPGDSGTLVIIFNLKLMDNGEPELDIISNPRDIQMAETSPEGTKPERRSFRAYAAVLYIDPRMRIFIHGHKVQTKRLSCCLYKPRMYKYTSSRFKTRAEQEVKKAEHVARIAEEKAREAESKARTLEVRLGGDLTRDSRVMLRQVQNRAITLRREADVKKRIKEAKQRALKEPKELNFVFGVNIEHRDLDGMFIYNCSRLIKMYEKVGPQLEGGMACGGVVGVVDVPYLVLEPTHNKQDFADAKEYRHLLRAMGEHLAQYWKDIAIAQRGIIKFWDEFGYLSANWNQPPSSELRYKRRRAMEIPTTIQCDLCLKWRTLPFQLSSVEKDYPDTWVCSMNPDPEQDRCEASEQKQKVPLGTFRKDMKTQEEKQKQLTEKIRQQQEKLEALQKTTPIRSQADLKKLPLEVTTRPST", "notes": "also called S87L variant; source: Sf9 insect cells (baculovirus), purified as for wild type; not shown: tandem StrepII, N-terminal, cleaved"}, "B2": {"name": "MORC2(1–603) T424R (domain or fragment, human, UniProt Q9Y6X9-1 1-603, looked up)", "chain": "MAFTNYSSLNRAQLTFEYLHTNSTTHEFLFGALAELVDNARDADATRIDIYAERREDLRGGFMLCFLDDGAGMDPSDAASVIQFGKSAKRTPESTQIGQYGNGLKSGSMRIGKDFILFTKKEDTMTCLFLSRTFHEEEGIDEVIVPLPTWNARTREPVTDNVEKFAIETELIYKYSPFRTEEEVMTQFMKIPGDSGTLVIIFNLKLMDNGEPELDIISNPRDIQMAETSPEGTKPERRSFRAYAAVLYIDPRMRIFIHGHKVQTKRLSCCLYKPRMYKYTSSRFKTRAEQEVKKAEHVARIAEEKAREAESKARTLEVRLGGDLTRDSRVMLRQVQNRAITLRREADVKKRIKEAKQRALKEPKELNFVFGVNIEHRDLDGMFIYNCSRLIKMYEKVGPQLEGGMACGGVVGVVDVPYLVLEPRHNKQDFADAKEYRHLLRAMGEHLAQYWKDIAIAQRGIIKFWDEFGYLSANWNQPPSSELRYKRRRAMEIPTTIQCDLCLKWRTLPFQLSSVEKDYPDTWVCSMNPDPEQDRCEASEQKQKVPLGTFRKDMKTQEEKQKQLTEKIRQQQEKLEALQKTTPIRSQADLKKLPLEVTTRPST", "notes": "also called T424R variant; source: Sf9 insect cells (baculovirus), purified as for wild type; not shown: tandem StrepII, N-terminal, cleaved"}},
  "key": {"[1]": {"molecular_target": "the molecule itself", "assay": "SEC-MALS; SEC-MALS with QELS, Superdex 200 (10/300), 293 K, gel filtration buffer (50 mM HEPES pH 7.5, 150 mM NaCl, 2 mM MgCl2, 0.25 mM TCEP); no nucleotide added; WT at 40 µM, S87L at 7.5 µM; monomer to dimer"}, "[2]": {"molecular_target": "the molecule itself", "assay": "SEC-MALS; SEC-MALS with QELS, Superdex 200 (10/300), 293 K, gel filtration buffer; 2 mM Mg-AMPPNP added to the sample, 30 min on ice before injection; WT at 40 µM, T424R at 7.5 µM; monomer to dimer"}},
  "data": [
    {"protein": "B1", "values": [
      {"measurement": "stoichiometry N", "setting": "[1]", "value": 2}
    ]},
    {"protein": "B2", "values": [
      {"measurement": "stoichiometry N", "setting": "[2]", "value": 2}
    ]}
  ]
}
